The source of these data is paper PMC11446282 (2024).

To fix the notation:
B1: FAM122A [human (endogenous in HeLa)] / B55α WT (immunopurified, Fig. 2) [not stated] (parent complex)
chain 1: MAQEKMELDLELPPGTGGSPAEGGGSGGGGGLRRSNSAPLIHGLSDTSPVFQAEAPSARRNSTTFPSRHGLLLPASPVRMHSSRLHQIKQEEGMDLINRETVHEREVQTAMQISHSWEESFSLSDNDVEKSASPKRIDFIPVSPAPSPTRGIGKQCFSPSLQSFVSSNGLPPSPIPSPTTRFTTRRSQSPINCIRPSVLGPLKRKCEMETEYQPKRFFQGITNMLSSDVAQLSDPGVCVSSDTLDGNSSSAGSSCNSPAKVSTTTDSPVSPAQAASPFIPLDELSSK
chain 2: MAGAGGGNDIQWCFSQVKGAVDDDVAEADIISTVEFNHSGELLATGDKGGRVVIFQQEQENKIQSHSRGEYNVYSTFQSHEPEFDYLKSLEIEEKINKIRWLPQKNAAQFLLSTNDKTIKLWKISERDKRPEGYNLKEEDGRYRDPTTVTTLRVPVFRPMDLMVEASPRRIFANAHTYHINSISINSDYETYLSADDLRINLWHLEITDRSFNIVDIKPANMEELTEVITAAEFHPNSCNTFVYSSSKGTIRLCDMRASALCDRHSKLFEEPEDPSNRSFFSEIISSISDVKFSHSGRYMMTRDYLSVKIWDLNMENRPVETYQVHEYLRSKLCSLYENDCIFDKFECCWNGSDSVVMTGSYNNFFRMFDRNTKRDITLEASRENNKPRTVLKPRKVCASGKRKKDEISVDSLDFNKKILHTAWHPKENIIAVATTNNLYIFQDKVN
B2: CDCA4 (found with purified B55 variants) [human] / B55α WT (immunopurified, Fig. 2) [not stated] (parent complex)
chain 1: MFARGLKRKCVGHEEDVEGALAGLKTVSSYSLQRQSLLDMSLVKLQLCHMLVEPNLCRSVLIANTVRQIQEEMTQDGTWRTVAPQAAERAPLDRLVSTEILCRAAWGQEGAHPAPGLGDGHTQGPVSDLCPVTSAQAPRHLQSSAWEMDGPRENRGSFHKSLDQIFETLETKNPSCMEELFSDVDSPYYDLDTVLTGMMGGARPGPCEGLEGLAPATPGPSSSCKSDLGELDHVVEILVET
chain 2: B1 chain 2

In one assay the parent is B1. Briefly: immunopurification of YFP-B55α variants (IP: YFP), Western blot quantification; read off a plot.
As for chain 2 H179A, the percent of parent was roughly 70%. The same measure, in the same setting: in the case of chain 2 I284A it was roughly 97%; in that of chain 2 T230A, roughly 93%. Regarding chain 2 F280A, the percent of parent was roughly 140%. On to chain 2 S287A, for which the percent of parent was roughly 63%. Still for that read-out and setting: in the case of chain 2 L225A it was roughly 130%. With chain 2 D197A, the percent of parent was roughly 0%. The same measure, in the same setting: in the case of chain 2 F343A it was roughly 90%; in that of chain 2 D340A, roughly 77%. Take chain 2 V228A: the percent of parent was roughly 100%. The same measure, in the same setting: in the case of chain 2 L198A it was roughly 0%; in that of chain 2 Y337A, roughly 130%; in that of chain 2 Y178A, roughly 5%.

The next assay covers variants of B2. The description is as above.
As to chain 2 D340A, the percent of parent was roughly 28%. Turning to chain 2 S287A, the percent of parent was roughly 130%. Turning to chain 2 Y178A, the percent of parent was roughly 90%.

Turning to chain 2 V228A, the percent of parent was roughly 78%. Same read-out and setting: in the case of chain 2 F280A it was roughly 110%. Still for that read-out and setting: in the case of chain 2 T230A it was roughly 58%.

As for chain 2 Y337A, the percent of parent was roughly 50%. In the case of chain 2 L225A, the percent of parent is roughly 75%. On the same count and under the same terms, in the case of chain 2 D197A it was roughly 80%; in that of chain 2 I284A, roughly 160%; in that of chain 2 L198A, roughly 40%. Same read-out and setting: in the case of chain 2 H179A it was roughly 93%. The same measure, in the same setting: in the case of chain 2 F343A it was roughly 28%.
